Data set [1] concerns the target T1, wild-type Spx protein (Bacillus subtilis, UniProt O31602 1-131).
T1 construct: Spx of Bacillus subtilis; Made with the self-cleavable intein system (New England Biolabs); also called oxidized Spx; source: E. coli ER2566 (pMMN470), purified (chitin column, High S column)
T1 sequence (looked up): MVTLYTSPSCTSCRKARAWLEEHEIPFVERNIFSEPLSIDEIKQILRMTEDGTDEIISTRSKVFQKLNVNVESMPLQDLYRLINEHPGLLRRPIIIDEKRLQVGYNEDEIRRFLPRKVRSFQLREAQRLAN
The experiment in a line: native gel or EMSA; supershift of the αCTD-trxB promoter (-56 to -21) complex; 5 µM Spx and 5 µM αCTD preincubated 10 min at room temperature in 20 mM Tris-HCl pH 7.8, 50 mM NaCl, 5 mM MgCl2, 10% glycerol, then 32P-labelled probe 15 min; 6% native polyacrylamide gel in TGE buffer; no DTT. Conditions: both partners purified. On the technique in general: In EMSA bound probe runs differently from free probe, usually more slowly.

Data set [2] deals with T2, alphaCTD (C-terminal domain of RNA polymerase alpha subunit) (Bacillus subtilis, UniProt P20429 225-314).
T2 sequence: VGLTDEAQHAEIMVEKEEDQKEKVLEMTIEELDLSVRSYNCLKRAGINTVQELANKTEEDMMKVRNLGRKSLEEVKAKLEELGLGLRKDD
The experiment in a line: EMSA; 5 uM alphaCTD; EMSA: 20 mM Tris-HCl pH 7.8, 50 mM NaCl, 5 mM MgCl2, 10% glycerol, 5 uM each protein unless stated, room temperature (10 min preincubation, 15 min with probe). Particulars: protein: recombinant; tags: tag-free after self-cleavable intein/chitin purification; label: 32P-dA at 3' end of the S42 strand (Klenow fill-in); blunt after Klenow fill-in of S42 (35-mer).

For data set [3], the target named is T3, Spx wild-type (Bacillus subtilis, UniProt O31602 1-131).
T3 sequence: T1 sequence (looked up)
The experiment in a line: EMSA; 5 uM Spx alone; EMSA: 20 mM Tris-HCl pH 7.8, 50 mM NaCl, 5 mM MgCl2, 10% glycerol, 5 uM each protein unless stated, room temperature (10 min preincubation, 15 min with probe). Conditions: protein: recombinant; tags: tag-free after self-cleavable intein/chitin purification; label: 32P-dA at 3' end of the S42 strand (Klenow fill-in); blunt after Klenow fill-in of S42 (35-mer).

In data set [4] the target is T4, alphaCTD (C-terminal domain of RNA polymerase alpha subunit);SpxR60E (Bacillus subtilis;Bacillus subtilis, UniProt P20429;O31602 225-314;1-131, |R60E).
T4 sequence 1: T2 sequence
T4 sequence 2: T1 sequence (looked up) with R60E
The experiment in a line: EMSA; 5 uM each; SpxR60E also prevents the alphaCTD-DNA complex; EMSA: 20 mM Tris-HCl pH 7.8, 50 mM NaCl, 5 mM MgCl2, 10% glycerol, 5 uM each protein unless stated, room temperature (10 min preincubation, 15 min with probe). Particulars: protein: recombinant;recombinant; tags: tag-free after self-cleavable intein/chitin purification;intein (pTYB4), cleaved; cloned via NcoI/SmaI; copies: 1;1; label: 32P-dA at 3' end of the S42 strand (Klenow fill-in); blunt after Klenow fill-in of S42 (35-mer).

Data set [5] has as its target T2, alphaCTD (C-terminal domain of RNA …). The experiment in a line: EMSA; EMSA: 20 mM Tris-HCl pH 7.8, 50 mM NaCl, 5 mM MgCl2, 10% glycerol, 5 uM each protein unless stated, room temperature (10 min preincubation, 15 min with probe). Conditions: protein: recombinant; tags: tag-free after self-cleavable intein/chitin purification; label: 32P-dA at 3' end of the S44 strand (Klenow fill-in); blunt after Klenow fill-in of S44 (35-mer).

Positions count from the first letter of the chain named.

B1: αCTD (residues 225–314) (domain or fragment, Bacillus subtilis, UniProt P20429 225-314, looked up)
chain: T2 sequence
notes: RNA polymerase α subunit (RpoA) of Bacillus subtilis, C-terminal domain, residues 225-314; Made with the self-cleavable intein system (New England Biolabs); also called rpoA-CTD; source: E. coli BL21/pLysS (pSN37), purified (chitin column, High Q column)
As for B1, the binding result in data set [1] is reported as “binds”.

B2: trxB promoter (-56 to -21) (dsDNA)
DNA 1: TAATCGTGTTGAGCAAAAAAATAGCGTATCACCATG
DNA 2: CATGGTGATACGCTATTTTTTTGCTCAACACGATTA
Regarding B2, the binding result in data set [2] is listed as “binds”; in data set [3], “no binding”; in data set [4], “no binding”.

B3: trxB (-56 to -21) G-44A G-33A (dsDNA)
DNA 1: B2 DNA 1 with G13A, G24A
DNA 2: B2 DNA 2 with C13T, C24T
B3: in data set [5], the binding result is recorded as “binds”.

Source of the values: PMC2801614, “Promoter Recognition by a Complex of Spx and the C-Terminal Domain of the RNA Polymerase α Subunit” (PLoS ONE, 2010).
